Three molecules from patent CN111995685A (SHANGHAI INST MATERIA MEDICA CAS; UNIV XIAMEN, dated 2020) can be followed below.

Assay [1] deals with T1, 抗原人源PD-1蛋白 (human, UniProt Q15116 25-167, limits assumed).
T1 construct: The construct is not described; also called 抗原PD-1; 抗原PD-1蛋白
Kind of assay: ELISA (binding and PD-L1 blocking) and BLI with PD-1 antigen, IgG format. On the technique in general: In an ELISA, binding on a coated surface is turned into a signal by an enzyme label.

In assay [2] the target is T1, 抗原人源PD-1蛋白. Briefly: ELISA of humanised Fab phage clones on PD-1 antigen.

T1 sequence (Q15116 25-167 limits assumed): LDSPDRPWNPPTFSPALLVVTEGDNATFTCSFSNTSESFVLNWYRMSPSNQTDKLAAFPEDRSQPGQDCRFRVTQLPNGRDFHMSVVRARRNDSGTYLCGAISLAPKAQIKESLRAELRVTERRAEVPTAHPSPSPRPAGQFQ

B1: T82# (antibody, V domains shown)
VH: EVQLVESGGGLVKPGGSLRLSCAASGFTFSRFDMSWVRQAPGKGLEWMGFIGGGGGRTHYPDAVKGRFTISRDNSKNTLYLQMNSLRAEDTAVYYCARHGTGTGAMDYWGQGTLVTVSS
VL: DIQMTQSPSTLSASVGDRVTISCRASKSVDNYGYSFMHWYQQKPGQAPRLLIYRSANLASGVPDRFSGSGSGTDFTLTISSLQAEDVAVYYCQQSNEDPTFGGGTKLEIK
notes: also called 抗PD-1单抗T82#
In the case of B1, the binding result with 抗原人源PD-1蛋白 [1] is given as “binds”.

B2: T1# (antibody, V domains shown)
VH: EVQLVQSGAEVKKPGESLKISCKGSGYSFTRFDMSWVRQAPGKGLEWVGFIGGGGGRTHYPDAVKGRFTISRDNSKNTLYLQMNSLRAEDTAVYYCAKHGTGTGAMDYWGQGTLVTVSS
VL: EIVLTQSPGTLSLSPGERATLSCRASKSVDNYGYSFMHWYQQKPGQAPRLLIYRSANLASGVPSRFSGSGSGTDFTLTINSLEAEDAATYYCQQSNEDPTFGGGTKVEIK
notes: also called 抗PD-1单抗T1#; 人源化PD-1抗体T1#
For B2, the binding result in the assay with 抗原人源PD-1蛋白 [2] is “binds”.

B3: T16# (antibody, V domains shown)
VH: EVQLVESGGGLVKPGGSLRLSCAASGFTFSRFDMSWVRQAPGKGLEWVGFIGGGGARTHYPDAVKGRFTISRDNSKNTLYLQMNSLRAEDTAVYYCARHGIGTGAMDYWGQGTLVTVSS
VL: ETTLTQSPAFMSATPGDKVNISCRASKSVDNYGYSFMHWYQQKPGQAPRLLIYRSANLASGVPDRFSGSGSGTDFTLKISRVEAEDVGVYYCQQSNEDPTFGGGTKLEIK
notes: also called 抗PD-1单抗T16#
Take B3: the binding result with 抗原人源PD-1蛋白 [1] is “binds”.
